Experimental data published in the Immune Epitope Database (IEDB).

Tests used:
HLA-B*48:01 = assay: IEDB peptide-MHC binding, purified MHC/direct/fluorescence; filed as Kd, often an IC50 or EC50 that approximates it; ≥ and ≤ were set here for values at or beyond the usual limits of such assays; settings: source organism: Burkholderia mallei
HLA-C*08:02 = assay: as above
HLA-A*01:01 [1] = assay: as above; settings: source organism: Francisella tularensis subsp. holarctica LVS
HLA-A*80:01 = assay: as above; settings: source organism: Francisella tularensis subsp. holarctica LVS
HLA-A*01:01 [2] = assay: IEDB peptide-MHC binding, purified MHC/competitive/fluorescence; ≥ and ≤ were set here for values at or beyond the usual limits of such assays
HLA-B*15:01 [3] = assay: as above
HLA-B*46:01 = assay: IEDB peptide-MHC binding, purified MHC/competitive/fluorescence; filed as Kd, often an IC50 or EC50 that approximates it; ≥ and ≤ were set here for values at or beyond the usual limits of such assays; settings: source organism: Zaire ebolavirus
HLA-B*39:01 = assay: as above; settings: source organism: Zaire ebolavirus
HLA-A*02:01 [4] = assay: as above; settings: source organism: Zaire ebolavirus
HLA-B*57:01 = assay: as above; settings: source organism: Zaire ebolavirus
HLA-B*27:03 = assay: as above; settings: source organism: Zaire ebolavirus
HLA-A*26:01 = assay: as above; settings: source organism: Zaire ebolavirus
HLA-B*35:01 = assay: as above; settings: source organism: Zaire ebolavirus
HLA-A*69:01 = assay: as above; settings: source organism: Zaire ebolavirus
HLA-A*11:01 = assay: IEDB peptide-MHC binding, purified MHC/competitive/fluorescence; ≥ and ≤ were set here for values at or beyond the usual limits of such assays; settings: source organism: Zaire ebolavirus
HLA-A*02:01 [5] = assay: as above; settings: source organism: Zaire ebolavirus
HLA-B*07:02 [6] = assay: as above; settings: source organism: Zaire ebolavirus
HLA-A*24:02 = assay: as above; settings: source organism: Zaire ebolavirus
HLA-A*03:01 = assay: as above; settings: source organism: Zaire ebolavirus
HLA-A*24:03 = assay: IEDB peptide-MHC binding, purified MHC/direct/fluorescence; filed as Kd, often an IC50 or EC50 that approximates it; ≥ and ≤ were set here for values at or beyond the usual limits of such assays; settings: source organism: Zaire ebolavirus
HLA-A*02:16 = assay: as above; settings: source organism: Zaire ebolavirus
HLA-A*23:01 = assay: as above; settings: source organism: Zaire ebolavirus
HLA-B*58:01 = assay: as above; settings: source organism: Zaire ebolavirus
HLA-A*02:12 = assay: as above; settings: source organism: Zaire ebolavirus
HLA-A*02:03 = assay: as above; settings: source organism: Zaire ebolavirus
HLA-A*02:19 = assay: as above; settings: source organism: Zaire ebolavirus
HLA-B*15:42 = assay: IEDB peptide-MHC binding, purified MHC/competitive/fluorescence; filed as Kd, often an IC50 or EC50 that approximates it; ≥ and ≤ were set here for values at or beyond the usual limits of such assays; settings: source organism: Vibrio vulnificus YJ016
HLA-B*45:06 = assay: as above; settings: source organism: Vibrio vulnificus YJ016
HLA-C*06:02 = assay: as above; settings: source organism: Vibrio vulnificus YJ016
HLA-B*83:01 = assay: as above; settings: source organism: Vibrio vulnificus YJ016
HLA-B*15:01 [7] = assay: IEDB peptide-MHC binding, purified MHC/direct/fluorescence; filed as Kd, often an IC50 or EC50 that approximates it; ≥ and ≤ were set here for values at or beyond the usual limits of such assays; settings: source organism: Vibrio vulnificus CMCP6
HLA-C*12:03 = assay: as above; settings: source organism: Vibrio vulnificus YJ016
HLA-B*07:02 [8] = assay: as above; settings: source organism: Vibrio vulnificus
HLA-C*14:02 = assay: as above; settings: source organism: Vibrio vulnificus YJ016
HLA-B*51:01 = assay: as above; settings: source organism: Vibrio vulnificus
HLA-C*15:02 = assay: as above; settings: source organism: Vibrio vulnificus YJ016
[9] = source organism: Sudan ebolavirus
[10] = source organism: Zaire ebolavirus

## FQPQSGNAM
HLA-B*48:01
  Kd: 2.53 µM
HLA-C*08:02; source organism: Burkholderia mallei NCTC 10229
  Kd: 0.576 µM

## LSDNLSLVY
HLA-A*01:01 [1]
  Kd: ≤ 0.001 µM
HLA-A*80:01
  Kd: 0.168 µM
HLA-C*08:02; source organism: Francisella tularensis subsp. tularensis FSC198
  Kd: 0.552 µM

## TSSYYATSY
HLA-A*01:01 [2]; [9]
  IC50: 2.01 µM
HLA-B*15:01 [3]; [9]
  IC50: 14.3 µM

## TVAPPAPVY
HLA-B*46:01
  Kd: ≥ 20 µM
HLA-B*39:01
  Kd: ≥ 20 µM
HLA-A*02:01 [4]
  Kd: ≥ 20 µM
HLA-B*57:01
  Kd: ≥ 20 µM
HLA-B*27:03
  Kd: ≥ 20 µM
HLA-A*26:01
  Kd: ≥ 20 µM
HLA-B*35:01
  Kd: 0.0002 µM
HLA-A*69:01
  Kd: ≥ 20 µM
HLA-A*01:01 [2]; [10]
  IC50: 18.2 µM
HLA-A*11:01
  IC50: 0.276 µM
HLA-B*15:01 [3]; [10]
  IC50: 8.09 µM
HLA-A*02:01 [5]
  IC50: ≥ 119 µM
HLA-B*07:02 [6]
  IC50: ≥ 138 µM
HLA-A*24:02
  IC50: 5.17 µM
HLA-A*03:01
  IC50: 6.32 µM
HLA-A*24:03
  Kd: ≥ 20 µM
HLA-A*02:16
  Kd: ≥ 20 µM
HLA-A*23:01
  Kd: ≥ 20 µM
HLA-B*58:01
  Kd: 1.1 µM
HLA-A*02:12
  Kd: ≥ 20 µM
HLA-A*02:03
  Kd: ≥ 20 µM
HLA-A*02:19
  Kd: ≥ 20 µM

## YLRKHIRAL
HLA-B*15:42
  Kd: ≥ 5 µM
HLA-B*45:06
  Kd: ≥ 5 µM
HLA-C*06:02
  Kd: 0.482 µM
HLA-B*83:01
  Kd: ≥ 5 µM
HLA-B*15:01 [7]
  Kd: 0.024 µM
HLA-C*12:03
  Kd: 0.193 µM
HLA-B*07:02 [8]
  Kd: 0.003 µM
HLA-C*14:02
  Kd: 0.099 µM
HLA-B*51:01
  Kd: ≥ 20 µM
HLA-C*15:02
  Kd: ≥ 20 µM
